According to patent US20260132182A1 (published 2026):
Read-outs that look alike come from different tables or passages of the source. Starred links: 1 amine or outer side, 2 acyl side, 3 side chain; linkers in the order of their positions; H or OH if unused. Non-standard residues stand in square brackets, D forms with d. Groups on a side chain read outwards from the residue. No end group written: not given here. *: point of attachment. C20 diacid = O=C(O)CCCCCCCCCCCCCCCCCCC(=O)*; C18 diacid = O=C(O)CCCCCCCCCCCCCCCCC(=O)*; C16 diacid = O=C(O)CCCCCCCCCCCCCCC(=O)*; γGlu = O=C(O)[C@H](CCC(=O)[*:2])N[*:1]; εLys = N[C@@H](CCCCN[*:1])C(=O)[*:2]; Trx = NC[C@H]1CC[C@H](C(=O)O)CC1; AEEA = NCCOCCOCC(=O)O; Aib = CC(C)(N)C(=O)O

T1: human amylin-3 (a) receptor (human, UniProt P30988 25-474; O60896 24-148)
T1 sequence (looked up) 1: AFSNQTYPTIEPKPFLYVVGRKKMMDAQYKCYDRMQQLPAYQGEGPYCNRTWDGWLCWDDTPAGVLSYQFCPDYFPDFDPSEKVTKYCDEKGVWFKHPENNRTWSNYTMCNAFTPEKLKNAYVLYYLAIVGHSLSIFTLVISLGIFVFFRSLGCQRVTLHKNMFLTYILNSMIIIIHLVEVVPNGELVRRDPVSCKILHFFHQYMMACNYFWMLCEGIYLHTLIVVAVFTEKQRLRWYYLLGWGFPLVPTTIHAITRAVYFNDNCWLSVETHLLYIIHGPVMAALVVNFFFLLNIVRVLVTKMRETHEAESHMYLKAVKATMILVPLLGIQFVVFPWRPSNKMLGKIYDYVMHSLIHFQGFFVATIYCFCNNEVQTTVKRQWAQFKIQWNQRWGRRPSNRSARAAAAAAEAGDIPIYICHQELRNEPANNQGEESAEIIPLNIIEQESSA
T1 sequence (looked up) 2: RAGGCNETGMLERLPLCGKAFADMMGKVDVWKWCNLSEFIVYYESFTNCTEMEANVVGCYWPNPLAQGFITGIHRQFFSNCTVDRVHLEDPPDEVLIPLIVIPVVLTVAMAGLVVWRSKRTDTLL


Columns and labels:
Test in all cases: cell-based or functional assay
human GLP-1 receptor [1] = target: T2, human GLP-1 receptor (human, UniProt P43220 24-463)
[2] = target: T1, human amylin-3 (a) receptor
human GLP-1 receptor [3] = target: T2, human GLP-1 receptor; remark: listed apart in the source
[4] = target: T1, human amylin-3 (a) receptor; remark: listed apart in the source
[5] = target: T1, human amylin-3 (a) receptor; remark: listed apart in the source
human GLP-1 receptor [6] = target: T2, human GLP-1 receptor; remark: listed apart in the source

Row | Binder | Human GLP-1R potency [EC50 (pM)] (human GLP-1 receptor [1]) [pM] | Human AmyR3 potency [EC50 (pM)] [2] [pM] | Human GLP-1R potency [EC50 (pM)] (human GLP-1 receptor [3]) [pM] | Human AmyR3 potency [EC50 (pM)] [4] [pM] | also measured
1 | Comparator compound 0192 (peptide) peptide: H[Aib]EGTFTSDVSSYLEEQAAREFIAWLVRGRK([AEEA-AEEA-γGlu-Trx-C20 diacid])GGGGEASELSTAALGRPSAELHELATLPRTETGSGSP-NH2 | 10.8 | 10000 |  |  | 
2 | Comparator compound 0167 (peptide) peptide: H[Aib]EGTFTSDVSSYLEEQAAREIFAWLVRGRK([AEEA-AEEA-γGlu-Trx-C20 diacid])GGGGEASELSTAALGRLSAELHELATLPRTETGSGSP-NH2 | 10000 | 10.9 |  |  | 
3 | Compound 0116 (peptide) peptide: H[Aib]EGTFTSDVSSYLEEQAARK([AEEA-AEEA-γGlu-C18 diacid])FIAWLVRGRK([AEEA-AEEA-γGlu-C18 diacid])GGEASELSTAALGRLSAELHELATLPRTETGSGSP-NH2 |  |  | 1.5 | 21.7 | 
4 | Compound 0115 (peptide) peptide: H[Aib]EGTFTSDVSSYLEEQAAREFIAWLVRGRK([AEEA-AEEA-γGlu-C18 diacid])EASELSTAALGRLSAELHELATLPRTETGSGSP-NH2 |  |  | 2.2 | 22.8 | 
5 | KCNTATCATQRLANFLVHSSNNFGPILPPTNVGSNTY [Pramlintide] |  | 7.8 |  |  | Human AmyR3 potency [EC50 (pM)] [5]: 7.8 pM
6 | Compound 0114 (peptide) peptide: H[Aib]EGTFTSDVSSYLEEQAAREFIAWLVRGRK([AEEA-AEEA-γGlu-C18 diacid])GGEASELSTAALGRLSAELHELATLPRTETGSGSP-NH2 |  |  | 1 | 17.5 | 
7 | Comparator compound 0164 (peptide) peptide: H[Aib]EGTFTSDVSSYLEGQAAKEIFAWLVRGRK([εLys-AEEA-AEEA-γGlu-C18 diacid])GGEASELSTAALGRLSAELHELATLPRTETGSGSP-NH2 | 852 | 29.6 |  |  | 
8 | Compound 0111 (peptide) peptide: H[Aib]EGTFTSDVSSYLEEQAAREFIAWLVRGRK([AEEA-AEEA-γGlu-C18 diacid])GGGGEASELSTAALGRLSAELHELATLPRTETGSGSP-NH2 |  |  | 3 | 11.5 | Human GLP-1R potency [EC50 (pM)] (human GLP-1 receptor [6]): 3 pM; Human AmyR3 potency [EC50 (pM)] [5]: 11.5 pM
9 | Comparator compound 0668 (ends and bridges not checked) peptide: H[Aib]EGTFTSDVSSYLEGQAAK([AEEA-AEEA-γGlu-C18 diacid])EFIAWLVRGRGGQEPGQEPK([γGlu-γGlu-C16 diacid])CNTATCATQRLADFLRHSSPNFGAIPSSTNVGSRTY-NH2 | 455 | 10000 |  |  | 
10 | Comparator compound 0015 (ends and bridges not checked) peptide: H[Aib]EGTFTSDVSSYLEGQAAK([AEEA-AEEA-γGlu-C18 diacid])EFIAWLVRGRGGQEPGQEPCNTATCATQRLAEFLRHSSNNFGPILPPTNVGSNTP-NH2 | 45 | 312 |  |  | 
11 | Comparator compound 0016 (ends and bridges not checked) peptide: H[Aib]EGTFTSDVSSYLEGQAAK([AEEA-AEEA-γGlu-C18 diacid])EFIAWLVRGRGGQEPGQEPK([AEEA-AEEA-γGlu-C18 diacid])CNTATCATQRLAEFLRHSSNNFGPILPPTNVGSNTP-NH2 | 510 | 1550 |  |  | 
12 | Compound 0110 (peptide) peptide: H[Aib]EGTFTSDVSSYLEEQAARK([εLys-AEEA-AEEA-γGlu-C18 diacid])FIAWLVRGK([εLys-AEEA-AEEA-γGlu-C18 diacid])GGGGGGGGGEASELSTAALGRLSAELHELATLPRTETGSGSP-NH2 |  |  | 2.7 | 40.7 | 
13 | Comparator compound 0671 (ends and bridges not checked) peptide: H[Aib]EGTFTSDVSSYLEEQAAREFIAWLVRGRK([AEEA-AEEA-γGlu-C18 diacid])GGGGEKCNTATCATQRLANFLVHSSNNFGPILPPTNVGSNTY-NH2 |  |  |  |  | Human GLP-1R potency [EC50 (pM)] (human GLP-1 receptor [6]): 4.5 pM; Human AmyR3 potency [EC50 (pM)] [5]: 230 pM
14 | Comparator compound 0672 (ends and bridges not checked) peptide: H[Aib]EGTFTSDVSSYLEEQAAREFIAWLVRGRK([AEEA-AEEA-γGlu-C18 diacid])GGGGEKCNTATCATQRLAEFLRHSSNNFGPILPPTNVGSNTP-NH2 |  |  |  |  | Human GLP-1R potency [EC50 (pM)] (human GLP-1 receptor [6]): 2.2 pM; Human AmyR3 potency [EC50 (pM)] [5]: 606 pM
15 | EASELSTAALGRLSAELHELATLPRTETGSGSP-NH2 (not fully specified) [Compound 1806] |  |  |  |  | Human AmyR3 potency [EC50 (pM)] [5]: 5 pM
16 | Comparator compound 0185 (peptide) peptide: H[Aib]EGTFTSDVSSYLEGQAAKEFIAWLVRGRK([εLys-AEEA-AEEA-γGlu-C18 diacid])GGEASELSTAALGRPSAELHELATLPRTETGSGSP-NH2 | 13.1 | 5660 |  |  | 
17 | Compound 0120 (peptide) peptide: H[Aib]EGTFTSDVSSYLEEQAAREFIAWLVRGRK([AEEA-AEEA-γGlu-Trx-C20 diacid])GGGGEASELSTAALGRLSAELHELATLPRTETGSGSP-NH2 |  |  | 9.1 | 10.6 | 
